One data set has as its target thioflavin T. Put plainly: Thioflavin T fluorescence. As to conditions: value read at the wild-type emission peak, about 480 nm; the mutant trace lies on the zero line over the whole 460-595 nm spectrum; parent: est. 66; read off a plot.
Data set [1] deals with the molecule itself. Put plainly: transmission electron microscopy of filaments (negative stain); purified, concentrated protein left undisturbed (4°C, or 4°C or 22°C for the LCD proteins) for days to weeks; 1% phosphotungstic acid stain; self-assembly into filaments.

Results on 5 molecules are retold here after publication PMC4783047, “Determinants of Amyloid Formation for the Yeast Termination Factor Nab3” (PLoS ONE, 2016).

Take “Nab3 low complexity domain, C-terminal 134 amino acids of Nab3 (Nab3^134) (from UniProt P38996) Q2E; Q7E; Q9E; Q15E; Q30E; Q32E; Q34E; Q39E; Q41E; Q47E; Q50E; Q52E; Q55E; Q57E; Q59E; Q82E; Q96E; Q101E; Q105E; Q107E; Q109E; Q111E; Q113E; Q115E”: the response with thioflavin T worked out at 0.

B1: Nab3 low complexity domain, C-terminal 134 amino acids of Nab3 (Nab3^134) (domain or fragment, S. cerevisiae, UniProt P38996 669-802, looked up)
chain: SQTPMDQQQLLSAIQNLPPNVVSNLLSMAQQQQQQPHAQQQLVGLIQSMQGQAPQQQQQQLGGYSSMNSSSPPPMSTNYNGQNISAKPSAPPMSHQPPPPQQQQQQQQQQQQQQQQPAGNNVQSLLDSLAKLQK
notes: Inserted between the BglII and XhoI sites of pET32a; also called Nab3 LCD; wildtype LCD
Take B1: the binding result in data set [1] was “binds”.

B2: Full-length Nab3 (natural protein, S. cerevisiae, UniProt P38996 1-802, looked up)
chain: MSDENHNSDVQDIPSPELSVDSNSNENELMNNSSADDGIEFDAPEEEREAEREEENEEQHELEDVNDEEEEDKEEKGEENGEVINTEEEEEEEHQQKGGNDDDDDDNEEEEEEEEDDDDDDDDDDDDEEEEEEEEEEGNDNSSVGSDSAAEDGEDEEDKKDKTKDKEVELRRETLEKEQKDVDEAIKKITREENDNTHFPTNMENVNYDLLQKQVKYIMDSNMLNLPQFQHLPQEEKMSAILAMLNSNSDTALSVPPHDSTISTTASASATSGARSNDQRKPPLSDAQRRMRFPRADLSKPITEEEHDRYAAYLHGENKITEMHNIPPKSRLFIGNLPLKNVSKEDLFRIFSPYGHIMQINIKNAFGFIQFDNPQSVRDAIECESQEMNFGKKLILEVSSSNARPQFDHGDHGTNSSSTFISSAKRPFQTESGDMYNDDNGAGYKKSRRHTVSCNIFVKRTADRTYAIEVFNRFRDGTGLETDMIFLKPRMELGKLINDAAYNGVWGVVLVNKTHNVDVQTFYKGSQGETKFDEYISISADDAVAIFNNIKNNRNNSRPTDYRAMSHQQNIYGAPPLPVPNGPAVGPPPQTNYYQGYSMPPPQQQQQQPYGNYGMPPPSHDQGYGSQPPIPMNQSYGRYQTSIPPPPPQQQIPQGYGRYQAGPPPQPPSQTPMDQQQLLSAIQNLPPNVVSNLLSMAQQQQQQPHAQQQLVGLIQSMQGQAPQQQQQQLGGYSSMNSSSPPPMSTNYNGQNISAKPSAPPMSHQPPPPQQQQQQQQQQQQQQQQPAGNNVQSLLDSLAKLQK
notes: Nab3, S. cerevisiae transcription termination factor, 802 amino acids; also called full-length wildtype Nab3; the entire 802-residue protein
On to B2, for which the binding result in data set [1] is “binds”.

B3: Nab3^134 with the last 18 amino acids of Nab3 deleted (Nab3^134Δα) (domain or fragment, S. cerevisiae, UniProt P38996 669-784, looked up)
chain: SQTPMDQQQLLSAIQNLPPNVVSNLLSMAQQQQQQPHAQQQLVGLIQSMQGQAPQQQQQQLGGYSSMNSSSPPPMSTNYNGQNISAKPSAPPMSHQPPPPQQQQQQQQQQQQQQQQ
notes: Same vector as m1, so an S-tag is probably left after thrombin cleavage
Consider B3, for which, in data set [1], the binding result was “binds”.

B4: Pcf11 low complexity domain (residues 228-287) (domain or fragment, yeast, UniProt P39081 228-287, looked up)
chain: MRYHELQQQQQQQQQQQQQQQQQQQQYHETKDMVGSYTQNSNSAIPLFGNNSDTTNQQNS
notes: Pcf11, yeast transcription termination factor, codon 228 to codon 287 (core prion-like domain as defined by Alberti et al.); Inserted between the BglII and XhoI sites of pET32a; also called Pcf11 LCD; Pcf11's LCD; source: E. coli, pET32-Pcf11-LCD (synthetic gene), thioredoxin fusion, purified (HisTrap, thrombin cleavage, second HisTrap)
For the molecule B4, the binding result in data set [1] is given as “binds”.
